Measurements taken from publication PMC8178691.

Target: human purified plasma‐derived fibronectin (human)
Assay: ELISA

binding as percent of normal VWF: 68%
Substance: recombinant VWF p.D2509E (from UniProt P04275 23-2813) (natural protein)
